Laboratory results from the supplement of paper PMC12042874.
± gives the uncertainty stated by the source.

Assay: amyloid nucleation score (Sup35N fusion, yeast selection) (log enrichment); library NNK2; higher = more nucleation; inactive = no reads after selection
Summary of the method: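 Random libraries were run with three technical output replicates. In each, psi-negative yeast expressing Sup35N fused to peptides of 20 random codons were induced 24 hours with 100 μM copper sulfate and grown 7 days at 30°C on medium lacking adenine and uracil, and input and output plasmid inserts were Illumina-sequenced. The nucleation score is the DiMSum log enrichment of output over input reads, centred on the mode score of non-aggregating sequences, and sequences under 100 input reads were excluded.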

Row | Substance | amyloid nucleation score
1 | NHMKFAGLGGCYSYCTFLVD | 6.587 ± 0.045
2 | NHRAIYF | 0.205 ± 0.77
3 | NHTLVLLIRNSNVHVSTAQS | 10.78 ± 0.07
4 | NHVARMFLKQRFFSNMS | inactive
5 | NHVNNLIHDFRPALEHLRDT | -0.134 ± 0.45
6 | NIAWTVDRYRKGSARGV | 1.17 ± 0.23
7 | NICITHPH | 0.299 ± 0.64
8 | NIGRYIIQVGSNGEANWHRV | inactive
9 | NILVLLVTGVTLGR | 4.11 ± 0.059
10 | NINNFLSISIFNGYASHVNC | inactive
11 | NINTSYHNSPCPQYTLASMW | -0.231 ± 1
12 | NINYGSSA | -0.746 ± 0.78
13 | NIPRRGIVGWTAL | inactive
14 | NIRMVNLLAYVCPEVIREAC | inactive
15 | NIRSHKGIVLVG | inactive
16 | NIVYESDVVFSCISKYWL | 5.426 ± 0.04
17 | NIYGDNVGCYSTECYNTKLI | -0.305 ± 0.74
18 | NIYIWVSTMFLLKSEQSSSN | 6.038 ± 0.058
19 | NKARWAPVRMEALLVAQRVG | 1.28 ± 0.38
20 | NKEKN | 2.58 ± 0.13
21 | NKGVCDEVSVSSISVAIF | -0.093 ± 0.63
22 | NKMGVKVYTRIAQHSGHLFA | 5.21 ± 0.094
23 | NKNVSTGWYCVIESI | 1.26 ± 0.6
24 | NLFQRCREGDMVRNSSVLDG | -0.017 ± 1
25 | NLKLPNRSSWVLPVQYRPFD | 3.28 ± 0.053

Row | Substance | amyloid nucleation score
26 | NLKMDLLRFLHMSLRYISTR | -0.36 ± 0.64
27 | NLMVVRRSDHSRPGNCHWQA | 0.381 ± 0.3
28 | NLNFPMRSSILDCAGDNVRR | 0.49 ± 0.8
29 | NLRNKIVGLTKGLVCRANVV | 2.34 ± 0.091
30 | NLRYVFRFII | 2.9 ± 0.073
31 | NLSYSVVMTGISGAMTTCCF | 3.64 ± 0.11
32 | NLTFACVVYANWVILTHGAR | 6.336 ± 0.061
33 | NLVAMPDQVAGSTCRVCNNN | 0.486 ± 0.51
34 | NLVCNSLFRDDKVSTELTEM | inactive
35 | NMCWFKPG | -0.329 ± 0.17
36 | NMDYDIKEQFLSRVPSPRES | -0.95 ± 0.78
37 | NMFIRKEYWSTLALEIFWWS | -0.441 ± 0.4
38 | NMFSLWVYKLAMFWIY | -0.701 ± 1.1
39 | NMGIFALGAEQD | -0.039 ± 1.1
40 | NMHNTCMYKRKLVMDSSVWL | inactive
41 | NMLWASMYH | -0.546 ± 0.42
42 | NMTKRWMVCYHFFFKNYDLT | 0.207 ± 0.8
43 | NNFWSNGG | -0.285 ± 0.48
44 | NNLPTQIYYVLNSPSEVRLN | 0.579 ± 0.31
45 | NNMKVDAVVYIATKPGHWDQ | 7.589 ± 0.034
46 | NNNCGRLGVYI | -0.962 ± 1
47 | NNPWFCGGSLWLYGSQYSPS | 3.23 ± 0.078
48 | NNRVVFTGRFL | -1.45 ± 0.47
49 | NNSYVFFFI | 7.013 ± 0.064
50 | NNVFELCERSKLPIKKFHDV | -0.615 ± 1

Row | Substance | amyloid nucleation score
51 | NNVGWVLHDGRFFSVSHYIA | 0.294 ± 1.1
52 | NNVRMYLSFRAIVY | -1.19 ± 0.76
53 | NNWVAAHSLS | inactive
54 | NPFLFAYANYLLLMCIGRVY | -0.044 ± 0.61
55 | NPGVDQTHFLGFLI | -1.85 ± 1.1
56 | NPLRWEWAGVWLRYTR | 0.816 ± 0.58
57 | NPLYEARKRNRLYTFGATRF | 3.65 ± 0.084
58 | NPWIAIKWHNTVFLRHIWQM | -0.494 ± 0.22
59 | NPYAHTGHCVIRGFFVA | 0.275 ± 0.53
60 | NQFLMVWSDIDVRKDVRFLH | -0.977 ± 0.48
61 | NQYMFFGSHRD | 0.424 ± 0.49
62 | NRAFLMSYAPRRHFGAMSKA | 3.51 ± 0.073
63 | NRICYRLGCLRADNDNDLSG | -0.234 ± 0.26
64 | NRLMVPSTNKFTCLPE | 0.056 ± 0.36
65 | NRNLSYHT | 0.633 ± 0.8
66 | NRRFSSGSVSSLKFLRSVWA | -0.428 ± 0.61
67 | NRSFNMHPCGILKKNLVVGV | 0.613 ± 0.74
68 | NRSGEYRPLMMCVLGPLSTD | 0.687 ± 0.24
69 | NRSLD | -1.26 ± 0.54
70 | NRSMSISGMTGYEQLKRHGT | 0.023 ± 0.27
71 | NRTFSHWTCLYLFLSTLKRE | -1.06 ± 0.76
72 | NRYTNGPNF | -0.106 ± 0.29
73 | NSFVYGCKCYALTFLRTFLV | -1.48 ± 0.62
74 | NSINRMVVQLVG | 3.9 ± 0.087
75 | NSIYTESHGCTSSCLYGSGY | -0.839 ± 0.78

Row | Substance | amyloid nucleation score
76 | NSLLNFVFSVYVKACIIPYT | inactive
77 | NSPPVLLHMWRFRRRDTRRY | -0.551 ± 0.61
78 | NSRLLLTHRRISPSPWYVGV | 1.09 ± 0.16
79 | NSRRQERWCFIMTLVDFDVV | -0.431 ± 0.4
80 | NSTLGGVFACYYFALSHAAE | 6.41 ± 0.059
81 | NTCRSYNRNVIIRARPRPGL | 5.14 ± 0.069
82 | NTFFQYDPRHRGHTAGWCGE | 0.07 ± 0.54
83 | NTGFNCCNHFFRADGSLVEC | 3.39 ± 0.15
84 | NTGWILPYCKRGNSALEGWL | 4.31 ± 0.056
85 | NTLGSELLLFA | 1.75 ± 0.2
86 | NTLSRYHFNGVRVYCEMTAL | inactive
87 | NTQVTQVILYLRPWV | 9.151 ± 0.038
88 | NTSFFDGTFLY | 0.598 ± 0.57
89 | NTSMSPSQYCC | 2.86 ± 0.16
90 | NTYVRSRHMAMSYCRMQMCL | 0.141 ± 0.27
91 | NVCIKLARCVVGLNLRFRGS | -0.347 ± 0.79
92 | NVCNTNWESVRKAWFSNMMV | 0.775 ± 0.52
93 | NVFLS | inactive
94 | NVKSYKGQRFVAFGGGSVYA | 0.567 ± 0.32
95 | NVKTKLCAGSKYSFPF | 0.213 ± 0.43
96 | NVMKVLSNRL | 1.61 ± 0.1
97 | NVPLFRSVSGDPVHHPLI | 2.41 ± 0.15
98 | NVSVGVPLQRTILLDLCTGT | inactive
99 | NVTQMRGSDISLLRMFESNY | 0.454 ± 0.45
100 | NVVSLIIQRKLRPAPVGSFR | 0.218 ± 1.1

Row | Substance | amyloid nucleation score
101 | NWGTGQPYNRMCMVH | inactive
102 | NWKWVRSKVAWPMRSEHHVE | 1.65 ± 0.21
103 | NWVRINYWLRAIIKSELRVG | -0.155 ± 0.49
104 | NWWLTHVHLVSFYVVSWGWV | 3.35 ± 0.12
105 | NYILSMLCKMNARCLVTWRI | 0.712 ± 0.4
106 | NYLSLVGRFNMGWGESNGRR | 5.888 ± 0.058
107 | NYNLRDHSDVRVRCSLALSE | inactive
108 | NYQGI | -0.874 ± 0.56
109 | NYQIHVRVIRHLMTLGISAQ | 0.236 ± 0.35
110 | PAFMSV | -1.05 ± 0.36
111 | PAHVSYILSLCLINVC | 4.34 ± 0.072
112 | PAPCTFRYLAITCGLTRYTC | -0.143 ± 0.34
113 | PASTREDGWFYCAHSVVSSQ | 0.346 ± 0.54
114 | PAVSYFFITFYVIVRFRLAE | 2.86 ± 0.18
115 | PAYRYKHSNWKNPRQ | inactive
116 | PCCRGRRSSLGRAIKGAEAK | 0.009 ± 0.23
117 | PCGNPLQRYS | 1.62 ± 0.4
118 | PCIWGDVVL | 0.506 ± 0.41
119 | PCNTVLASPRYHVGGIYNLK | -0.727 ± 0.78
120 | PCRLHLAWIVSLMT | 4.21 ± 0.067
121 | PCSANWRLYIANISGSFPMR | 5.34 ± 0.083
122 | PDFSDFITHLIGFRSMGTGG | -0.694 ± 1.1
123 | PDISKECLTIGNGSACELTD | 0.827 ± 0.28
124 | PDVVNNGGSYHLHWGCWCW | 3.25 ± 0.14
125 | PEFICYCANSACDWSTYCIG | 7.356 ± 0.036

Row | Substance | amyloid nucleation score
126 | PEFITEFQALASFEYVMLRF | -1.23 ± 0.41
127 | PFDFWRLISSLG | 0.531 ± 0.81
128 | PFFLMISAVISHHNEHRHTM | 5.926 ± 0.058
129 | PFMRYPWYFIAGYV | -1.52 ± 0.49
130 | PFRKDVTLPLIFVLHVLQPD | -0.191 ± 0.54
131 | PFYLVRRGWNIWNSNGVECH | -0.161 ± 1.1
132 | PGDGTFLMFLACGCFRPFCG | -0.181 ± 0.49
133 | PGLLQGLKSGWSKTYKLLTR | 0.808 ± 0.8
134 | PGSRTWFGTMLAPDTCLHEM | 1.7 ± 0.16
135 | PHDGMHINT | 1.53 ± 0.31
136 | PILEIYVCGSLMYIFNITIV | 6.691 ± 0.033
137 | PINKGKWCSTNFNAGITRI | -0.01 ± 0.61
138 | PIRPVLWVQFVKTQYGPMIP | 4.68 ± 0.098
139 | PISTSLADR | 1.21 ± 0.42
140 | PIYLIC | -0.686 ± 0.28
141 | PLAVGRCGGIAYSVWCTVNL | 5.15 ± 0.078
142 | PLERKRLSHCRWLGRRRLGG | 1 ± 0.34
143 | PLGPNSTYFVWASSWAFYRP | -1.65 ± 0.78
144 | PLILGGGLLWIVC | 0.201 ± 0.74
145 | PLRNGDGVSFLGSVLSWPQA | -0.294 ± 1.1
146 | PLWVEGFMCSNGMCILGRSG | 1.77 ± 0.14
147 | PMCPMSIVLCSATLLLELFV | 5.414 ± 0.037
148 | PMISFSLTMRDNCYSGWLCN | 1.63 ± 0.21
149 | PMKLTILDTNGCNINRAPFS | -1.02 ± 1.1
150 | PMLEFWFMAWIEMFTYKKCC | 1.8 ± 0.53

Row | Substance | amyloid nucleation score
151 | PMMSIAMCVSSTPLRYFRVR | 2 ± 0.12
152 | PMMWESESYPLIF | -0.268 ± 0.79
153 | PMYRILNSTKESSGFALRGP | -0.952 ± 0.45
154 | PNDHNQLQGPMLSLPPVKQV | -0.359 ± 0.41
155 | PNIKNIT | 2.38 ± 0.24
156 | PNRIFFTLFCLTKYIIPMFM | -1.33 ± 0.75
157 | PPRKTIELCSTQP | 0.7 ± 0.35
158 | PPTTT | 0.621 ± 0.43
159 | PQGDSMTVCFQLVT | 1.28 ± 0.61
160 | PQHYVMGYVCWDVSVVLRSP | 2.91 ± 0.092
161 | PQLSKVLGWNYRCVNLSIW | 4.93 ± 0.086
162 | PRGAPNVFDFTLNFSLKQVA | -0.551 ± 0.35
163 | PRGLATRPLFNRVYLHWYLL | -0.639 ± 0.61
164 | PRLKMLRWAGVNQS | -0.011 ± 0.4
165 | PRMRWAVCERP | 4.11 ± 0.096
166 | PRRSNTCWNSCISEMIGIRS | 0.664 ± 0.51
167 | PRSVVPYR | 0.5 ± 0.31
168 | PRVPCTHHMPGW | 0.027 ± 0.65
169 | PRWAKYYVLSRC | -1.6 ± 1.1
170 | PRWKHLTWIP | -0.349 ± 0.64
